Results as given in patent US20260218138A1, “ENGINEERED ACYLTRANSFERASES HAVING ALTERED SUBSTRATE SPECIFICITY” (KEZBIOSOLUTIONS GMBH, priority 2022, published 2026).
Where a chain is given by its changes, count along the chain named. In names and notes the source's numbering stands. Read-outs that look alike come from different tables or passages of the source. Values belong to the molecule of their own block, whether it stands above or below them.

Experiments:
[1] = Screen: transfer of malonyl-moieties from Mal-CoA to N-(2-mercaptoethyl)-hexanamide (enzyme-coupled assay); format: biochemical, murine; conditions: fixed substrate and acceptor concentrations; FIG. 4
Description: Specific transfers from Mal-CoA to N-(2-mercaptoethyl)-hexanamide were analyzed at fixed substrate and acceptor concentrations. […] Shown error bares reflect standard deviations from triplicates.
Further engineered mutants were expressed, purified and analyzed, building up on the previous studies. A screen for fifty different exemplary mutants was performed analyzing the transfer of malonyl-moieties from CoA to N-(2-mercaptoethyl)-hexanamide. Four solutions were prepared as 4× concentrated stocks in the assay buffer. Solution 1 contained the acyltransferases at the concentration range of 0.01 μM-10 μM and were arranged in four groups depending on their individual turnover rates to achieve good signal to noise ratios. Solution 2 contained the enzyme-coupled system including 8 mM α-ketoglutaric acid, 1.6 mM NAD+, 1.6 mM TPP and 60 mU/100 μL αKGDH. Solution 3 contained a fixed concentration of malonyl (Mal)-CoA at 200 μM and solution 4 contained the acceptor N-(2-mercaptoethyl)-hexanamide at 200 μM. 5 μL of Solutions 1-3 were pipetted into a 384-well Small Volume HiBase Microplates (Greiner Bio-one) and mixed manually. The reactions were started by adding 5 μL of solution 4 with an automatic multichannel pipette (ClipTip). The reaction progress was recorded using the following settings: 348-20 nm; emission: 476-20 nm; gain: 1700; focal height: 12.1 mm; flashes: 10; orbital averaging: off. […]

[2] = In-depth kinetics: enzyme-coupled assay, malonyl transfer from Mal-CoA to ACP; format: biochemical, murine; conditions: substrate A (Mal-CoA)
Description: (§1) Y-axes show turnover in s^−1 and x-axes show substrate concentration in μM. Apparent kinetic parameters at a fixed acceptor concentration of ACP of 85 μM were determined by fitting the data points with the Michaelis-Menten function. Shown error bares reflect standard deviations from triplicates.
(§2) An enzyme-coupled assay was performed to analyze the transfer of acyl-moieties from CoA to the ACP. Four solutions were prepared as 4× concentrated stocks in the assay buffer. Solution 1 contained the acyltransferase at the concentration range of 0.01 μM-10 μM, depending on the transfer kinetics to achieve good signal to noise ratios. Solution 2 contained the enzyme-coupled system including 8 mM α-ketoglutaric acid, 1.6 mM NAD+, 1.6 mM TPP and 60 mU/100 μL αKGDH. Solution 3 contained the methylmalonyl (MMal)-CoA at concentrations between 0.1 μM and 1,000 μM and solution 4 contained the ACP from murine FAS as a standalone protein at 240 μM. 5 μL of Solutions 1-3 were pipetted into a 384-well Small Volume HiBase Microplates (Greiner Bio-one) and mixed manually. The reactions were started by adding solution 4 with the dispenser system of the microplate reader (ClarioStar, BMG labtech). The reaction progress was recorded using the following settings: 348-20 nm; emission: 476-20 nm; gain: 1500; focal height: 11.9 mm; flashes: 17; orbital averaging: off.
(§3) In-depth kinetic analysis results allowing a comparison of enzyme kinetic parameters for the transfer of malonyl-moieties from either Mal-CoA or 3-Oxo-3-[[2-[(1-oxohexyl)amino]ethyl]thio]-propanoic acid to the ACP are shown for a representative mutant (A35) herein. Enzyme kinetics were determined with the established enzyme-coupled assay for Mal-CoA kinetics and a variation of the new thiol quantifying assay using ThioGlo.
Enzyme-coupled assay was performed as described in Example 3 with 4× concentrated stocks. The enzyme concentration of A35 in Solution 1 was 4.2 μM, the substrate concentrations of Mal-CoA in Solutions 3 were between 8-400 μM and the acceptor concentration of ACP in Solution 4 was 340 μM.

[3] = In-depth kinetics: thiol quantification assay (ThioGlo), malonyl transfer from non-CoA substrate to ACP; format: biochemical, murine
Description: as §1
To verify the re-engineered mutant activity, having a substrate specificity altered from natural CoA substrates to non-CoA substrates, an alternative method to quantify specific turnover rates for non-CoA substrates was established. Such non-CoA substrates are not detectable by the enzyme-coupled assay. We used a thiol-sensitive fluorophore (ThioGlo4; Yi et al. 2009) to quantify the released free thiol groups from the substrate 3-Oxo-3-[[2-[(1-oxohexyl)amino]ethyl]thio]-propanoic acid after the enzyme-specific transfer of the malonyl moiety to a non-thiol acceptor. Briefly, three solutions were prepared in either a twofold concentration or as 4× concentrated stocks in the assay buffer. […] Free thiols were detected by adding 10 μL of 120 μM ThioGlo in the buffer 250 mM potassium phosphate, 1 mM EDTA and 10% glycerol, mixing and fluorescence detection at the microplate reader (ClarioStar, BMG labtech) using the following settings: 400-20 nm; emission: 465-20 nm; gain: 700; focal height: 12.5 mm; flashes: 20; orbital averaging: off. […]
as §3
A variation of the thiol quantification assay in Example 5 was established to be able to separate the liberated thiol groups from 3-Oxo-3-[[2-[(1-oxohexyl)amino]ethyl]thio]-propanoic acid after acyl-transfer from the thiol groups of the acceptor ACP. […]

[4] = Enzyme-coupled assay: transfer of acyl-moieties from MMal-CoA to the ACP; format: biochemical; conditions: substrate MMal-CoA, acceptor ACP from murine FAS
Description: as §2

[5] = Comparative data from Rittner et al. 2018; cited from earlier work
[6] = acceptor ACP fixed at 85 μM, apparent parameters
[7] = substrate B (3-Oxo-3-[[2-[(1-oxohexyl)amino]ethyl]thio]-propanoic acid), acceptor ACP fixed at 85 μM, apparent parameters

B1: Mutant A48: engineered murine acyltransferase, mutations T161A F184E R286D K186D D160R (protein)
chain: NKRPLWFICSGMGTQWRGMGLSLMRLDSFRESILRSDEAVKPLGVKVSDLLLSTDERTFDDIVHAFVSLTAIQIALIDLLTSVGLKPDGIIGHSLGEVACGYADGCLSQREAVLAAYWRGQCIKDAHLPPGSMAAVGLSWEECKQRCPAGVVPACHNSERAVTISGPQAAVNEFVEQLKQEGVEADEVRTGGLAFHSYFMEGIAPTLLQALKKVIREPRPRSARWLSTSIPEAQWQSSLARTSSAEYNVNNLVSPVLFQEALWHIPEHAVVLEIAPHALLQAVLKDGVKSSCTIIPLMKRDHKDNLEFFLTNLGKVHLT
turnover rate, transfer from Mal-CoA to N-(2-mercaptoethyl)-hexanamide [1]: did not give a detectable signal

Factor ([2]; acceptor ACP, kcat/Km relative to substrate A): 1
B2: Mutant A35: engineered murine acyltransferase, mutations T161L F184L R286L K186D R300D (protein)
chain: B1 chain with R160D, A161L, E184L, D286L, R300D
Km [2, 6]: 25 µM | kcat [2, 6]: 0.01 s⁻¹ | Km [3, 7]: 30 µM | kcat [3, 7]: 5.75 s⁻¹ | Factor ([3]; substrate B (non-CoA substrate), acceptor ACP, kcat/Km relative to substrate A (Mal-CoA)): 467

B3: (WT): wild type murine FAS malonyl-acetyl-transferase (MAT), no mutation (protein, listed as Mus musculus)
chain: B1 chain with R160D, A161T, E184F, D186K, D286R
Km [4]: 0.53 µM | kcat [4]: 1.297 s⁻¹ | Km [5]: 0.62 µM | kcat [5]: 4.000 s⁻¹
